Each block holds one binder with its values, some of them ahead of it.
Target: T1, human FGFR2IIIb expressed on Ba/F3 cells (human, UniProt P21802 22-821)
T1 chain: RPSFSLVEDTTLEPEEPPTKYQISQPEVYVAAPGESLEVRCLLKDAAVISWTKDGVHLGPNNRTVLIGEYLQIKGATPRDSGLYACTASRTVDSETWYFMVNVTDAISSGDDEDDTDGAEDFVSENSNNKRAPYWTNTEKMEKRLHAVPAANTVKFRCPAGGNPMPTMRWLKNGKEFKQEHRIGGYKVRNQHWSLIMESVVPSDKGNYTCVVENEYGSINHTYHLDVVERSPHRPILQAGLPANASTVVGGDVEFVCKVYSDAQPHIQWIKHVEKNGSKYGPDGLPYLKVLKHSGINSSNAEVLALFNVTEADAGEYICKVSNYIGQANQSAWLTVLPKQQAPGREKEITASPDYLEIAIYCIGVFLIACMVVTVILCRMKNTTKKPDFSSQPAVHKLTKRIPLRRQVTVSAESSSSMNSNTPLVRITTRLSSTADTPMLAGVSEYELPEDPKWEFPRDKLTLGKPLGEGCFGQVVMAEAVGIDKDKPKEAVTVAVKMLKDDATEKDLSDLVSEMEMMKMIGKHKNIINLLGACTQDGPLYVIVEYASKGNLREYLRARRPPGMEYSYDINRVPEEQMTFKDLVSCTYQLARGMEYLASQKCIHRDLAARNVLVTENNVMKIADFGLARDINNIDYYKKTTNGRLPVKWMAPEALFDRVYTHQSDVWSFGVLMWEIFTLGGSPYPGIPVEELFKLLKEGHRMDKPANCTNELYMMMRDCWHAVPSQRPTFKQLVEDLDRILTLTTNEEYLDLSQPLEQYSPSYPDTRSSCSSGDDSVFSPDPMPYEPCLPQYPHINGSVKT
Assay: cell-based or functional assay

EC50 (ng/mL) of ADCC, LDH release: 2 ng/mL
B1: afucosylated monoclonal antibody αFGFR2bA (antibody, human IgG1, kappa)
heavy: not shown
light: DIQMTQSPSSLSASVGDRVTITCKASQGVSNDVAWYQQKPGKAPKLLIYSASYRYTGVPSRFSGSGSGTDFTFTISSLQPEDIATYYCQQHSTTPYTFGQGTKLEIKRTVAAPSVFIFPPSDEQLKSGTASVVCLLNNFYPREAKVQWKVDNALQSGNSQESVTEQDSKDSTYSLSSTLTLSKADYEKHKVYACEVTHQGLSSPVTKSFNRGEC
modifications: Asn297 glycan lacks fucose (afucosylated; produced in FUT8-lacking Potelligent CHOK1SV cells)

EC50 (ng/mL) of ADCC, LDH release: 16 ng/mL
B2: fucosylated monoclonal antibody αFGFR2bF (antibody, human IgG1, kappa)
heavy: not shown
light: B1 light
modifications: Asn297 glycan contains fucose (fucosylated)

Reference: patent US20190175730A1 (Five Prime, published 2019)
